Results on 2 molecules are retold here after PMC5437307 (2017).

“And” between values parts separate entries of the source, which are not always exact repeats. Identical values can stand only once.

One assay has as its target IL-2Rβγc (Homo sapiens) (UniProt P14784). As to conditions: cited from earlier work.
In assay [1] the target is T1, F42A mutant (IL-2-Fc format) (human, UniProt P60568 21-153, F42A). As to the kind of experiment: SPR.
The target of assay [2] is T1, F42A mutant (IL-2-Fc format). As to the kind of experiment: SPR. This is another data set of the same source. (In general: Surface plasmon resonance follows binding to a sensor surface in real time, without labels.)

Sequence of IL-2Rβγc (Homo sapiens) (P14784 27-240, chain 1 of 2): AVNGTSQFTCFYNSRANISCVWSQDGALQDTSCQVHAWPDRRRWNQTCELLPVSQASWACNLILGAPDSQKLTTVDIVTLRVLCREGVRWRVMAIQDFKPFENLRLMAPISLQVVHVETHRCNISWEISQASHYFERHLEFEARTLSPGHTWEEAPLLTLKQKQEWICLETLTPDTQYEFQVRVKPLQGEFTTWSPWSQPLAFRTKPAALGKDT
Sequence of IL-2Rβγc (Homo sapiens) (P31785 23-262, chain 2 of 2, further chain): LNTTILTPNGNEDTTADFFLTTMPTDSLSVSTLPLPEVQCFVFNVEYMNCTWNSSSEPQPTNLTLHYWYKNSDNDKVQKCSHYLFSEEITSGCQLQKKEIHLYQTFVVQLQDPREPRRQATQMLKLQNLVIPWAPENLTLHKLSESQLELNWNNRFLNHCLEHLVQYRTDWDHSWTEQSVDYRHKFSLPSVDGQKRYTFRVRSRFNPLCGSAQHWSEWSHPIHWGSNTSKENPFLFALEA

Broadly, the Kd is the free concentration of one partner at which half of the binding sites on the other are occupied at equilibrium, for simple one-to-one binding. As for IL-2 (from UniProt P60568), the Kd in the assay with IL-2Rβγc (Homo sapiens) is 1 nM.

B1: hCD25-His (receptor)
chain: ELCDDDPPEIPHATFKAMAYKEGTMLNCECKRGFRRIKSGSLYMLCTGNSSHSSWDNQCQCTSSATRNTTKQVTPQPEEQKERKTTEMQSPMQPVDQASLPGHCREPPPWENEATERIYHFVVGQMVYYQCVQGYRALHRGPAESVCKMTHGKTRWTQPQLICTGEMETSQFPGEEKPQASPEGRPESETSCLVTTTDFQIQTEMAATMETSIFTTEYQ
In general, koff refers to the rate constant with which the complex falls apart. Lower therefore signals a long-lived complex. Regarding B1, the dissociation constant (Kd) in assay [1] is 1080 nM and 1100 nM. In addition, in assay [2], the koff stood at 0.325 s⁻¹.
